Experimental data: patent US20040005550A1, “Methods and compositions useful for targeting activated vitronectin receptor alphavbeta3” (The Scripps Research Institute, priority 1998, published 2004)

Assays:
[1] = biological target: T1, purified αvβ3 receptors from human placenta (human), P06756; test: ELISA on purified integrin; 2 mM RGDS against WOW-1 Fab
T1 chain 1: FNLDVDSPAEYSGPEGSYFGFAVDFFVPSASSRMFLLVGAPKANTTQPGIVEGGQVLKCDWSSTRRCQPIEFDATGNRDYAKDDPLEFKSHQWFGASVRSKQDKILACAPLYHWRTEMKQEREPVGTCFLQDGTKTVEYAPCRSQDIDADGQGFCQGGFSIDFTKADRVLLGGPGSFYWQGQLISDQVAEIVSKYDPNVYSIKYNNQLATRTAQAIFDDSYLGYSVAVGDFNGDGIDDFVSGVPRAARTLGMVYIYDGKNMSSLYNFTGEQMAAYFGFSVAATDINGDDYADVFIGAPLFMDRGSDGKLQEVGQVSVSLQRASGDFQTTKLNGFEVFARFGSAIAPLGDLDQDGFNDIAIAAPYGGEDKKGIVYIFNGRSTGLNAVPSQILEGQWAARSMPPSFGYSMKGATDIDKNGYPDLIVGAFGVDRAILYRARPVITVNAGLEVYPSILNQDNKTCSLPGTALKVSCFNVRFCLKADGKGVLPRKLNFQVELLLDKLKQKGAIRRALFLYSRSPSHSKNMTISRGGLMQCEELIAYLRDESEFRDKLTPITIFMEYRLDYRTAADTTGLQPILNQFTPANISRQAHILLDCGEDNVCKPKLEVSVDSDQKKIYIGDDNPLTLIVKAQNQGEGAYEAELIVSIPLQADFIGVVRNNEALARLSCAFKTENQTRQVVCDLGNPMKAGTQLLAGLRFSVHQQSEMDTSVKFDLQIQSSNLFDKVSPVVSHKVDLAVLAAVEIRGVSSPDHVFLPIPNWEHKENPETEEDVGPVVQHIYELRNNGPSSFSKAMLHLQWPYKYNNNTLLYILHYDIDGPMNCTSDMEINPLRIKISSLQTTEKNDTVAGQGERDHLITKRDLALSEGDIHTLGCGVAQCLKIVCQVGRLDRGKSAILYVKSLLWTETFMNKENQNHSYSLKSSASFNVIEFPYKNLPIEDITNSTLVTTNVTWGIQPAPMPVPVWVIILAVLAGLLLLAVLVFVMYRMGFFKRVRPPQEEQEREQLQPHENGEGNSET
T1 chain 2: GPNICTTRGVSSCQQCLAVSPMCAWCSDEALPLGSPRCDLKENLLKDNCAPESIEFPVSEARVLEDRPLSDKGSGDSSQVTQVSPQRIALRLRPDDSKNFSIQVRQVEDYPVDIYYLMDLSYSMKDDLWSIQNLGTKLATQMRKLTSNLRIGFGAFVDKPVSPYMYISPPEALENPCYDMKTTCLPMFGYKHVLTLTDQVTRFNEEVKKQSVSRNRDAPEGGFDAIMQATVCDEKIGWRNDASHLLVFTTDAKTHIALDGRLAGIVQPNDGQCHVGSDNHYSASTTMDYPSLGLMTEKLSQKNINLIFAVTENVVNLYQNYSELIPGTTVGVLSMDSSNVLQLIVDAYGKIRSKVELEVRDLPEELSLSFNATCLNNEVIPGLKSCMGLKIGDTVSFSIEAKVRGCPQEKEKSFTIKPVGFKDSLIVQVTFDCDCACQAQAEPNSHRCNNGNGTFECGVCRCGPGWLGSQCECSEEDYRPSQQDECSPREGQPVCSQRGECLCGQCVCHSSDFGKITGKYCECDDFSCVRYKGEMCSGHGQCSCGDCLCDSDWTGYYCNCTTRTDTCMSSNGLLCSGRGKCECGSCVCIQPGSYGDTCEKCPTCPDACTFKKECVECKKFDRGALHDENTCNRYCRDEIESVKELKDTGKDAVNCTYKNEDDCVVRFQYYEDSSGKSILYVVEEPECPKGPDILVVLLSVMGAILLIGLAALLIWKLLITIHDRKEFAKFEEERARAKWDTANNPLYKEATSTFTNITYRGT

[2] = biological target: T2, human αvβ3 integrin on cells (human), P06756; test: flow cytometry, AP5-treated αvβ3-CHO cells; 2 mM RGDS against aPB
T2 chain 1: T1 chain 1
T2 chain 2: T1 chain 2

[3] = biological target: T2, human αvβ3 integrin on cells (human), …; test: flow cytometry, AP5-treated αvβ3-CHO cells; 2 mM RGDS against WOW-1 Fab

With RGDS (modifications not checked) the percent inhibition of WOW-1 Fab binding [1] was over 95%, the percent inhibition of aPB binding [2] was over 85% and the percent inhibition of WOW-1 Fab binding [3] was over 85%.
